Results from US20230257467A1 (DRAGONFLY THERAPEUTICS, published 2023).
Positions count from the first letter of the chain named.

B1: PANI-H_S62R-L_F87Y-L_D92R (scFv, V domains shown)
VH: QVQLQESGPGLVKPSETLSLTCTVSGGSVSSGDYYWTWIRQSPGKCLEWIGHIYYSGNTNYNPRLKSRLTISIDTSKTQFSLKLSSVTAADTAIYYCVRDRVTGAFDIWGQGTMVTVSS
VL: DIQMTQSPSSLSASVGDRVTITCQASQDISNYLNWYQQKPGKAPKLLIYDASNLETGVPSRFSGSGSGTDFTFTISSLQPEDIATYYCQHFRHLPLAFGCGTKVEIK
notes: also called EGFR-scFv-3
B2: EGFR-TriNKET-2 (bispecific antibody, human IgG1, kappa)
chain: DIQMTQSPSSLSASVGDRVTITCQASQDISNYLNWYQQKPGKAPKLLIYDASNLETGVPSRFSGSGSGTDFTFTISSLQPEDIATYYCQHFDHLPLAFGCGTKVEIKGGGGSGGGGSGGGGSGGGGSQVQLQESGPGLVKPSETLSLTCTVSGGSVSSGDYYWTWIRQSPGKCLEWIGHIYYSGNTNYNPRLKSRLTISIDTSKTQFSLKLSSVTAADTAIYYCVRDRVTGAFDIWGQGTMVTVSSGSDKTHTCPPCPAPELLGGPSVFLFPPKPKDTLMISRTPEVTCVVVDVSHEDPEVKFNWYVDGVEVHNAKTKPREEQYNSTYRVVSVLTVLHQDWLNGKEYKCKVSNKALPAPIEKTISKAKGQPREPRVYTLPPCRDELTKNQVSLTCLVKGFYPSDIAVEWESNGQPENNYKTTPPVLVSDGSFTLYSKLTVDKSRWQQGNVFSCSVMHEALHNHYTQKSLSLSPG
heavy: EVQLVESGGGLVKPGGSLRLSCAASGFTFSSYSMNWVRQAPGKGLEWVSSISSSSSYIYYADSVKGRFTISRDNAKNSLYLQMNSLRAEDTAVYYCARGAPIGAAAGWFDPWGQGTLVTVSSASTKGPSVFPLAPSSKSTSGGTAALGCLVKDYFPEPVTVSWNSGALTSGVHTFPAVLQSSGLYSLSSVVTVPSSSLGTQTYICNVNHKPSNTKVDKKVEPKSCDKTHTCPPCPAPELLGGPSVFLFPPKPKDTLMISRTPEVTCVVVDVSHEDPEVKFNWYVDGVEVHNAKTKPREEQYNSTYRVVSVLTVLHQDWLNGKEYKCKVSNKALPAPIEKTISKAKGQPREPQVCTLPPSRDELTENQVSLTCLVKGFYPSDIAVEWESNGQPENNYKTTPPVLDSDGSFFLYSWLTVDKSRWQQGNVFSCSVMHEALHNHYTQKSLSLSPG
light: DIQMTQSPSSVSASVGDRVTITCRASQGISSWLAWYQQKPGKAPKLLIYAASSLQSGVPSRFSGSGSGTDFTLTISSLQPEDFATYYCQQGVSFPRTFGGGTKVEIKRTVAAPSVFIFPPSDEQLKSGTASVVCLLNNFYPREAKVQWKVDNALQSGNSQESVTEQDSKDSTYSLSSTLTLSKADYEKHKVYACEVTHQGLSSPVTKSFNRGEC
notes: F3' format with three polypeptides: EGFR-scFv-2 (VL-VH)-Fc, A49MI-VH-CH1-Fc and A49MI-VL-CL; also called EGFR2
B3: EGFR-TriNKET-1 (bispecific antibody)
scFv-Fc: B2 chain with Y87F, R191S
heavy: B2 heavy
light: B2 light
notes: also called EGFR1
B4: EGFR-TriNKET-4 (bispecific antibody, human IgG1, kappa)
chain: B2 chain with D92R, R191S
heavy: B2 heavy
light: B2 light
notes: F3' format with three polypeptides: EGFR-scFv-4 (VL-VH)-Fc, A49MI-VH-CH1-Fc and A49MI-VL-CL; also called EGFR4
B5: EGFR-TriNKET-3 (bispecific antibody, human IgG1, kappa)
chain: B2 chain with D92R
heavy: B2 heavy
light: B2 light
notes: F3' format with three polypeptides: EGFR-scFv-3 (VL-VH)-Fc, A49MI-VH-CH1-Fc and A49MI-VL-CL; also called EGFR3

How the values were obtained:
[1] = target: T1, recombinant human EGFR-His (human, UniProt P00533 25-645); test: SPR, single point mutant scFv constructs
T1 construct: also called epidermal growth factor receptor; ErbB-1; not shown: His tag (EGFR-His)

[2] = target: T2, recombinant rhesus EGFR-His (rhesus macaque, UniProt P55245 25-645, limits assumed); test: SPR, single point mutant scFv constructs
T2 construct: also called Rhesus macaque EGFR; not shown: His tag (EGFR-His)

[3] = target: T1, recombinant human EGFR-His; test: SPR, combination mutant scFv constructs
[4] = target: T2, recombinant rhesus EGFR-His; test: SPR, combination mutant scFv constructs
[5] = target: T1, recombinant human EGFR-His; test: SPR, Biacore 8K, 37 C, TriNKET captured on anti-hFc IgG chip, EGFR-His injected, N=4
Protocol: (§1) Kinetics and affinities of EGFR binding constructs for recombinant human and rhesus EGFR were measured by SPR using a Biacore 8K instrument. Samples were captured on the anti-hFc IgG chip and a range of concentrations of human or rhesus recombinant EGFR-His was injected over captured test articles. Experiments were performed at physiological temperature of 37° C. Data were analyzed using Biacore 8K Insight Evaluation software (GE Healthcare).

[6] = target: T3, EGFR expressed on H2172 human cancer cells (human, UniProt P00533 25-1210); test: flow cytometry on EGFR-positive H2172 cells, 4 C for 0.5 h, fluorophore-conjugated anti-human IgG secondary antibody
T3 construct: whole, on cells; also called EGFR-positive H2172 cancer cells; EGFR+ cells
Protocol: This example was designed to assess the binding affinity of the EGFR-targeting TriNKETs to EGFR expressed on cell surface. The H2172 human cancer cell line, derived from non-small cell lung carcinoma, was used. […] Cells were analyzed by flow cytometry and fold MFI over secondary-only controls reported.

[7] = target: T1, recombinant human EGFR-His; test: SPR, Biacore 8K, 37 C, TriNKET captured on anti-hFc IgG chip, EGFR-His injected, N=4; column head prints KD (nM) but the cells carry E-09
Protocol: as §1

Molecule	koff [5] [s⁻¹]	kon [5] [M⁻¹ s⁻¹]	EC50 (read off the curve) [6] [nM]	Kd [7] [nM]	other results
PANI-L-D92R (scFv)	–	–	–	–	Kd [1]: 3.27 nM; koff [1]: 0.000839 s⁻¹; kon [1]: 256000 M⁻¹ s⁻¹; Kd [2]: 5.09 nM; koff [2]: 0.00096 s⁻¹; kon [2]: 189000 M⁻¹ s⁻¹
B1	–	–	–	–	Kd [3]: 3.38 nM; koff [3]: 0.00099 s⁻¹; kon [3]: 293000 M⁻¹ s⁻¹; Kd [4]: 5.36 nM; koff [4]: 0.00112 s⁻¹; kon [4]: 209000 M⁻¹ s⁻¹
B2	0.000988	500000	~0.5	1.98	–
B3	0.000967	592000	~0.3	–	–
B4	0.000745	316000	–	2.36	–
B5	0.00093	295000	~0.9	3.16	–
